The source of these data is PMC11035697, “Phosphorylation of the F-BAR protein Hof1 drives septin ring splitting in budding yeast” (Nature Communications, 2024).

Data set [1] concerns the target T1, eGFP-tagged Cdc11-capped septin octamer (S. cerevisiae, UniProt P32458 1-415; P32468 1-407; P32457 1-520; P25342 1-322).
T1 construct: septin Cdc11, yeast; septin Cdc12, yeast; septin Cdc3, yeast; septin Cdc10, yeast; Always used as a 1:1 mix with the untagged octamer in the fluorescence experiments; also called eGFP-labelled septin octamers; GFP-tagged septin octamers; source: E. coli BL21 (DE3) Rosetta, co-expressed from pFM453 and pFM873, purified (amylose, thrombin cleavage of MBP, Ni-NTA); not shown: MBP, N-terminal, …
The experiment in a line: fluorescence microscopy of purified proteins (colocalisation on septin bundles); 1:1 mix of eGFP-tagged and untagged septin octamers (50 nM) on PI(4,5)P2-containing supported lipid bilayers in 20 mM Tris-Cl pH 8, 30 mM NaCl, 2 mM MgCl2, GTP; Hof1-BFP mixed 1:4 with untagged Hof1 added; spinning disk microscopy. Particulars: both partners purified.

Data set [2] concerns the molecule itself. The data set can be described thus: negative-stain transmission electron microscopy; septin octamers diluted in low salt buffer (20 mM Tris-Cl pH 8, 30 mM NaCl, 2 mM MgCl2, 40 µM GTP), polymerised at least 30 min at 4 °C, 180 nM final; 1% uranyl acetate; octamers to filaments.

B1: MBP-Hof1-BFP-6His (natural protein, S. cerevisiae, UniProt Q05080 1-669, looked up)
chain: MSYSYEACFWDPNDNGVNILLGHISQGIRSCDSMILFFKQRSELEKDYARRLGAITGKLDKDIGTNMDYGKLNETFNVVLSVEKARAQSHSKQSEILFRQIYTDTKAFAANLQARYTTLSGKIERLRMDKFNKKKGCEVLQKKLQDAQIRFRDLQLNENNMIGAKRVEHNKRELLKWESNSQEYKVQLDVLKQEYKASQKFWIHEWAQLSCELQEMENARISFLQSKLQQFATSSMETYILEQTKMDMLTNHLNSFTAADEISTFSKENGTGRLKHKTSKGDMNSSANWAQMSSISTTSKKTESYMDNIRKLSSQLKETENKRKLASIDKYEKPLPSPEVTMATQFRNSTPVIRNETKVVANPTLSLRSSPVQLQSNVDDSVLRQKPDKPRPIVGEEQLKPDEDSKNPDEKGLMVHKRNQSLSSPSESSSSNPTDFSHIKKRQSMESMTTSVSSMANSIDDSQRFAKSWNSSNRKRKSMSHLQVPSSASSRSDDGGRTPNSAHNLNEDDYNTRRDTSTSTILFKPPVAVRGTSRGHTHRQSMIMQDSSNPIEDALYEMERIQSSSKPGTKTGNIMDERGVVRDRGITVTLPIVTSEGFPVIEYAKAMYPLIGNEAPGLANFHKGDYLLITEIVNKDWYKGEVYDNDRIDRNHRIGLIPYNFIQLLHQGL
notes: F-BAR protein Hof1, S. cerevisiae, residues 1-669 (mTagBFP fragment cloned into pBG2163); BFP amplified from pHPOM1-mTagBFP2; also called Hof1 tagged with blue fluorescent protein; pSP1950; source: E. coli BL21 (DE3) Rosetta, purified (Ni-NTA, amylose); not shown: MBP, N-terminal, kept; mTagBFP, C-terminal, kept
Take B1: the binding result in data set [1] is “binds”.

B2: Cdc11-Cdc12-Cdc3-Cdc10-Cdc10-Cdc3-Cdc12-Cdc11 septin octamer (complex, S. cerevisiae)
chain 1: MSGIIDASSALRKRKHLKRGITFTVMIVGQSGSGRSTFINTLCGQQVVDTSTTILLPTDTSTEIDLQLREETVELEDDEGVKIQLNIIDTPGFGDSLDNSPSFEIISDYIRHQYDEILLEESRVRRNPRFKDGRVHCCLYLINPTGHGLKEIDVEFIRQLGSLVNIIPVISKSDSLTRDELKLNKKLIMEDIDRWNLPIYNFPFDEDEISDEDYETNMYLRTLLPFAIIGSNEVYEMGGDVGTIRGRKYPWGILDVEDSSISDFVILRNALLISHLHDLKNYTHEILYERYRTEALSGESVAAESIRPNLTKLNGSSSSSTTTRRNTNPFKQSNNINNDVLNPASDMHGQSTGENNETYMTREEQIRLEEERLKAFEERVQQELLLKRQELLQREKELREIEARLEKEAKIKQEE
chain 2: MSAATATAAPVPPPVGISNLPNQRYKIVNEEGGTFTVMLCGESGLGKTTFINTLFQTVLKRADGQQHRQEPIRKTVEIDITRALLEEKHFELRVNVIDTPGFGDNVNNNKAWQPLVDFIDDQHDSYMRQEQQPYRTKKFDLRVHAVLYFIRPTGHGLKPIDIETMKRLSTRANLIPVIAKADTLTAQELQQFKSRIRQVIEAQEIRIFTPPLDADSKEDAKSGSNPDSAAVEHARQLIEAMPFAIVGSEKKFDNGQGTQVVARKYPWGLVEIENDSHCDFRKLRALLLRTYLLDLISTTQEMHYETYRRLRLEGHENTGEGNEDFTLPAIAPARKLSHNPRYKEEENALKKYFTDQVKAEEQRFRQWEQNIVNERIRLNGDLEEIQGKVKKLEEQVKSLQVKKSHLK
chain 3: MSLKEEQVSIKQDPEQEERQHDQFNDVQIKQESQDHDGVDSQYTNGTQNDDSERFEAAESDVKVEPGLGMGITSSQSEKGQVLPDQPEIKFIRRQINGYVGFANLPKQWHRRSIKNGFSFNLLCVGPDGIGKTTLMKTLFNNDDIEANLVKDYEEELANDQEEEEGQGEGHENQSQEQRHKVKIKSYESVIEENGVKLNLNVIDTEGFGDFLNNDQKSWDPIIKEIDSRFDQYLDAENKINRHSINDKRIHACLYFIEPTGHYLKPLDLKFMQSVYEKCNLIPVIAKSDILTDEEILSFKKTIMNQLIQSNIELFKPPIYSNDDAENSHLSERLFSSLPYAVIGSNDIVENYSGNQVRGRSYPWGVIEVDNDNHSDFNLLKNLLIKQFMEELKERTSKILYENYRSSKLAKLGIKQDNSVFKEFDPISKQQEEKTLHEAKLAKLEIEMKTVFQQKVSEKEKKLQKSETELFARHKEMKEKLTKQLKALEDKKKQLELSINSASPNVNHSPVPTKKKGFLR
chain 4: MDPLSSVQPASYVGFDTITNQIEHRLLKKGFQFNIMVVGQSGLGKSTLINTLFASHLIDSATGDDISALPVTKTTEMKISTHTLVEDRVRLNINVIDTPGFGDFIDNSKAWEPIVKYIKEQHSQYLRKELTAQRERFITDTRVHAILYFLQPNGKELSRLDVEALKRLTEIANVIPVIGKSDTLTLDERTEFRELIQNEFEKYNFKIYPYDSEELTDEELELNRSVRSIIPFAVVGSENEIEINGETFRGRKTRWSAINVEDINQCDFVYLREFLIRTHLQDLIETTSYIHYEGFRARQLIALKENANSRSSAHMSSNAIQR
notes: septin Cdc11, yeast; septin Cdc12, yeast; septin Cdc3, yeast; septin Cdc10, yeast; also called Cdc11-capped septin octamers; recombinant septin octamers; source: E. coli BL21 (DE3) Rosetta, co-expressed from pFM453 and pFM455, purified (amylose, thrombin cleavage of MBP, Ni-NTA); not shown: MBP, N-terminal, cleaved; His6, N-terminal, kept; copies: 2 + 2 + 2 + 2
On to B2, for which the binding result in data set [2] is “binds”.
